Results as given in the supplement of paper PMC12042874.
± gives the uncertainty stated by the source.

Test: amyloid nucleation score (Sup35N fusion, yeast selection) (log enrichment); library NNK2; higher = more nucleation; inactive = no reads after selection
Method in brief: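 Yeast lacking psi expressed peptides of 20 random codons fused to Sup35N, received 100 μM copper sulfate for 24 hours, and were then grown for 7 days at 30°C on medium lacking adenine and uracil. Illumina sequencing of input and output plasmid inserts provided the reads. Nucleation scores are DiMSum log enrichments of output over input, centred on the mode of non-aggregating sequences. Any sequence with under 100 input reads was excluded.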

Question: For FYLKFHRCGR, which amyloid nucleation score is on record?
Answer: The amyloid nucleation score was 1.3 ± 0.11.

Question: With QYYVGYLT as the substance, how does the amyloid nucleation score read?
Answer: Its amyloid nucleation score is -0.738 ± 0.61.

Question: With SSYMSRALSCGHSFGKVGAN as the substance, how does the amyloid nucleation score read?
Answer: The amyloid nucleation score was 0.697 ± 0.81.

Question: For LAIVQ, which amyloid nucleation score is on record?
Answer: Its amyloid nucleation score is -0.256 ± 0.42.

Question: For FWEKSSKVFW, which amyloid nucleation score is on record?
Answer: Its amyloid nucleation score is 3.33 ± 0.13.

Question: For YDSDFFFHNLGDEPASVGFR, which amyloid nucleation score is on record?
Answer: Its amyloid nucleation score is “inactive”.

Question: For AVPAVRVNGLHIRNCGYTGP, which amyloid nucleation score is on record?
Answer: Its amyloid nucleation score is 1.22 ± 0.2.

Question: Which amyloid nucleation score does the source give for VVSITNINNMSSMRSEPEYK here?
Answer: Its amyloid nucleation score is 6.98 ± 0.078.

Question: For RCTGVMPV, which amyloid nucleation score is on record?
Answer: Its amyloid nucleation score is -0.072 ± 1.1.

Question: For AVRVGGTGFRVRS, which amyloid nucleation score is on record?
Answer: The amyloid nucleation score was -0.121 ± 0.48.

Question: Which amyloid nucleation score does the source give for DCSDLVSLLCNVRHAHGRWL here?
Answer: The amyloid nucleation score was 4.42 ± 0.067.

Question: With RSFGYIMLWVMIFNRIKLIF as the substance, how does the amyloid nucleation score read?
Answer: The amyloid nucleation score was “inactive”.

Question: Which amyloid nucleation score does the source give for GKSSHG here?
Answer: The amyloid nucleation score was 0.93 ± 0.32.

Question: For SWVRVTSPSIATFSATYCVL, which amyloid nucleation score is on record?
Answer: Its amyloid nucleation score is 0.619 ± 0.81.

Question: Which amyloid nucleation score does the source give for FMYRDLYRFMYCVVCAQFFH here?
Answer: Its amyloid nucleation score is 4.95 ± 0.05.

Question: For NCLSM, which amyloid nucleation score is on record?
Answer: Its amyloid nucleation score is 3.36 ± 0.081.

Question: With RHYLLFGWIVSPKVELFSPS as the substance, how does the amyloid nucleation score read?
Answer: The amyloid nucleation score was 0.895 ± 0.81.

Question: For ALWVKGMFGGTMTRGILFLC, which amyloid nucleation score is on record?
Answer: The amyloid nucleation score was -0.369 ± 1.1.

Question: With ELTGYT as the substance, how does the amyloid nucleation score read?
Answer: Its amyloid nucleation score is -0.388 ± 0.56.

Question: For LNIQFGGSLHWKSGGVATEA, which amyloid nucleation score is on record?
Answer: The amyloid nucleation score was 0.103 ± 0.28.

Question: With RDARNKFCDGLTVGILGACM as the substance, how does the amyloid nucleation score read?
Answer: Its amyloid nucleation score is -0.368 ± 0.29.

Question: For RRTICCCSIVCGRGNGSLDL, which amyloid nucleation score is on record?
Answer: The amyloid nucleation score was 6.257 ± 0.056.

Question: With ARWLSSAYSMIYEFSLLKSW as the substance, how does the amyloid nucleation score read?
Answer: The amyloid nucleation score was 0.706 ± 0.74.

Question: With VSHSSIWSGSLKKSVSCDHV as the substance, how does the amyloid nucleation score read?
Answer: Its amyloid nucleation score is “inactive”.

Question: Which amyloid nucleation score does the source give for PYTFQYY here?
Answer: Its amyloid nucleation score is -0.549 ± 0.26.

Question: Which amyloid nucleation score does the source give for TWRNYS here?
Answer: The amyloid nucleation score was -0.279 ± 0.35.

Question: For LVNFSSLIV, which amyloid nucleation score is on record?
Answer: Its amyloid nucleation score is -2.07 ± 1.1.

Question: Which amyloid nucleation score does the source give for SGPSFILSWS here?
Answer: Its amyloid nucleation score is -0.371 ± 0.63.

Question: Which amyloid nucleation score does the source give for RCVSRTR here?
Answer: Its amyloid nucleation score is 0.147 ± 1.1.

Question: For MSVMWLASLISFQLFMAAQL, which amyloid nucleation score is on record?
Answer: Its amyloid nucleation score is 0.062 ± 0.79.

Question: For FCHRRRYIFIWNIRCLSYLN, which amyloid nucleation score is on record?
Answer: The amyloid nucleation score was “inactive”.

Question: Which amyloid nucleation score does the source give for SCDVMIRYLSLGTLSYVRAV here?
Answer: The amyloid nucleation score was -0.032 ± 1.1.

Question: For LGPLVMVFCVRIPYTTMVAW, which amyloid nucleation score is on record?
Answer: The amyloid nucleation score was -1.25 ± 0.45.

Question: Which amyloid nucleation score does the source give for SKMPP here?
Answer: Its amyloid nucleation score is 0.147 ± 1.1.

Question: For GRSSAWFNEGRLW, which amyloid nucleation score is on record?
Answer: The amyloid nucleation score was 0.383 ± 0.39.

Question: For SNGMRNCKVCEFLLRLYASY, which amyloid nucleation score is on record?
Answer: Its amyloid nucleation score is -1.15 ± 0.55.

Question: For FLPNFSNVLFSLHPASKSGE, which amyloid nucleation score is on record?
Answer: Its amyloid nucleation score is -0.218 ± 0.48.

Question: Which amyloid nucleation score does the source give for VERRVGEVRFIDAGVFGLGY here?
Answer: The amyloid nucleation score was “inactive”.

Question: With EPCNTNIK as the substance, how does the amyloid nucleation score read?
Answer: The amyloid nucleation score was -0.553 ± 0.29.

Question: For MEKVHV, which amyloid nucleation score is on record?
Answer: The amyloid nucleation score was 1.65 ± 0.48.

Question: With STVVLSHRCLLSCE as the substance, how does the amyloid nucleation score read?
Answer: The amyloid nucleation score was -0.656 ± 1.1.

Question: With LRSSKKCYTILYVSYTLK as the substance, how does the amyloid nucleation score read?
Answer: Its amyloid nucleation score is -1.15 ± 1.1.

Question: Which amyloid nucleation score does the source give for SIYVSALDGMYSGGRDLWKR here?
Answer: Its amyloid nucleation score is 0.601 ± 0.48.

Question: With GFSLNISKCVFLRFIWVFHF as the substance, how does the amyloid nucleation score read?
Answer: The amyloid nucleation score was -0.447 ± 1.1.

Question: With VCVIISLHRV as the substance, how does the amyloid nucleation score read?
Answer: The amyloid nucleation score was 4.99 ± 0.058.

Question: With ESLKINASSEQSRLVTRDTQ as the substance, how does the amyloid nucleation score read?
Answer: The amyloid nucleation score was -0.191 ± 0.61.

Question: For NDWLSHGR, which amyloid nucleation score is on record?
Answer: The amyloid nucleation score was 4.31 ± 0.054.

Question: With MFSIYLLSCPLYISMNWSCR as the substance, how does the amyloid nucleation score read?
Answer: The amyloid nucleation score was 0.183 ± 1.

Question: With SLRNDGFNLDPVLHALFVEL as the substance, how does the amyloid nucleation score read?
Answer: Its amyloid nucleation score is -0.306 ± 0.63.

Question: For SFASRYFSNKGGLHSDMCAS, which amyloid nucleation score is on record?
Answer: Its amyloid nucleation score is “inactive”.

Question: With VEMSEDEPCLWYGSLIPGTR as the substance, how does the amyloid nucleation score read?
Answer: Its amyloid nucleation score is 2.83 ± 0.18.

Question: With HIYRKM as the substance, how does the amyloid nucleation score read?
Answer: Its amyloid nucleation score is 0.151 ± 0.2.

Question: With RAYFTSKMCIRQTWTEKILY as the substance, how does the amyloid nucleation score read?
Answer: Its amyloid nucleation score is 5.13 ± 0.052.

Question: Which amyloid nucleation score does the source give for CEVFYSVGRSK here?
Answer: Its amyloid nucleation score is -0.633 ± 1.1.

Question: For IVGDVHSLMILRVKSAFKFT, which amyloid nucleation score is on record?
Answer: The amyloid nucleation score was 2.81 ± 0.16.

Question: Which amyloid nucleation score does the source give for LVLAGSYDRCLPSCVVMRKG here?
Answer: The amyloid nucleation score was 0.461 ± 0.64.

Question: With FLIINYRSCRGINFIYARFY as the substance, how does the amyloid nucleation score read?
Answer: Its amyloid nucleation score is “inactive”.

Question: With ETRGNRPF as the substance, how does the amyloid nucleation score read?
Answer: The amyloid nucleation score was 0.88 ± 0.33.

Question: With TCEYVVN as the substance, how does the amyloid nucleation score read?
Answer: Its amyloid nucleation score is -0.659 ± 0.54.

Question: Which amyloid nucleation score does the source give for VLYYTPRLSVERMGFHNMIY here?
Answer: The amyloid nucleation score was -0.46 ± 1.

Question: Which amyloid nucleation score does the source give for KYHRI here?
Answer: Its amyloid nucleation score is -0.721 ± 0.74.

Question: For RYRWDLSPRNTTTN, which amyloid nucleation score is on record?
Answer: Its amyloid nucleation score is 3.22 ± 0.072.

Question: For CRMFSEHSYRRSSLSVPGMN, which amyloid nucleation score is on record?
Answer: Its amyloid nucleation score is “inactive”.

Question: For TPLEYF, which amyloid nucleation score is on record?
Answer: The amyloid nucleation score was -0.19 ± 0.3.

Question: With YECGCHLFD as the substance, how does the amyloid nucleation score read?
Answer: The amyloid nucleation score was -0.225 ± 0.74.
